Experimental data taken from patent US6344362.

Target: SCCA1 recombinant protein expressed on transfected HepG2 and CHO cells (human)

“HBV viral particles present in the serum of patients with acute hepatitis B” was tested. Which HBV-DNA values of transfected cell lines relative to control cell lines did it give?
Its HBV-DNA values of transfected cell lines relative to control cell lines is 8 times.
